Measurements taken from patent US20160375112A1 (priority 2013, published 2016).

Details: human, in vivo

In the case of botulinum toxin, the “botulinum toxin-related reactions (hypersensitivity, after injection and before ALDARA)” value is reported as “No botulinum toxin-related reactions”.
